Test results taken from US20150125431A1 (ZEALAND PHARMA A S, published 2015).
Non-standard residues stand in square brackets, D forms with d. Aib = CC(C)(N)C(=O)O

B1: Compound 10: Hy-H-Aib-DGSFSDELNTILDGKAARDFINWLIQTK-NH2 (peptide)
peptide: H-H[Aib]DGSFSDELNTILDGKAARDFINWLIQTK-NH2
SMILES: CC[C@H](C)[C@H](NC(=O)[C@H](Cc1ccccc1)NC(=O)[C@H](CC(=O)O)NC(=O)[C@H](CCCNC(=N)N)NC(=O)[C@H](C)NC(=O)[C@H](C)NC(=O)[C@H](CCCCN)NC(=O)CNC(=O)[C@H](CC(=O)O)NC(=O)[C@H](CC(C)C)NC(=O)[C@@H](NC(=O)[C@@H](NC(=O)[C@H](CC(N)=O)NC(=O)[C@H](CC(C)C)NC(=O)[C@H](CCC(=O)O)NC(=O)[C@H](CC(=O)O)NC(=O)[C@H](CO)NC(=O)[C@H](Cc1ccccc1)NC(=O)[C@H](CO)NC(=O)CNC(=O)[C@H](CC(=O)O)NC(=O)C(C)(C)NC(=O)[C@@H](N)Cc1c[nH]cn1)[C@@H](C)O)[C@@H](C)CC)C(=O)N[C@@H](CC(N)=O)C(=O)N[C@@H](Cc1c[nH]c2ccccc12)C(=O)N[C@@H](CC(C)C)C(=O)N[C@H](C(=O)N[C@@H](CCC(N)=O)C(=O)N[C@H](C(=O)N[C@@H](CCCCN)C(N)=O)[C@@H](C)O)[C@@H](C)CC
B2: Compound 1: Hy-H-Aib-DGSFSDEMNTILDNQAARDFINWLIQTKITD-OH (peptide)
peptide: H-H[Aib]DGSFSDEMNTILDNQAARDFINWLIQTKITD-OH
SMILES: CC[C@H](C)[C@H](NC(=O)[C@H](Cc1ccccc1)NC(=O)[C@H](CC(=O)O)NC(=O)[C@H](CCCNC(=N)N)NC(=O)[C@H](C)NC(=O)[C@H](C)NC(=O)[C@H](CCC(N)=O)NC(=O)[C@H](CC(N)=O)NC(=O)[C@H](CC(=O)O)NC(=O)[C@H](CC(C)C)NC(=O)[C@@H](NC(=O)[C@@H](NC(=O)[C@H](CC(N)=O)NC(=O)[C@H](CCSC)NC(=O)[C@H](CCC(=O)O)NC(=O)[C@H](CC(=O)O)NC(=O)[C@H](CO)NC(=O)[C@H](Cc1ccccc1)NC(=O)[C@H](CO)NC(=O)CNC(=O)[C@H](CC(=O)O)NC(=O)C(C)(C)NC(=O)[C@@H](N)Cc1c[nH]cn1)[C@@H](C)O)[C@@H](C)CC)C(=O)N[C@@H](CC(N)=O)C(=O)N[C@@H](Cc1c[nH]c2ccccc12)C(=O)N[C@@H](CC(C)C)C(=O)N[C@H](C(=O)N[C@@H](CCC(N)=O)C(=O)N[C@H](C(=O)N[C@@H](CCCCN)C(=O)N[C@H](C(=O)N[C@H](C(=O)N[C@@H](CC(=O)O)C(=O)O)[C@@H](C)O)[C@@H](C)CC)[C@@H](C)O)[C@@H](C)CC

What follows are molecules tested against human GLP-2 receptor (hGLP2-R), splice variant rs17681684 (human) (UniProt O95838) (assay: cell-based or functional assay).

Row | Molecule | GLP-2R EC50 (nM), cAMP AlphaScreen on HEK293 cells expressing the receptor [nM]
1 | GLP-1 (from UniProt P01275 98-127) (peptide) | > 1000

What follows are molecules tested against T1, human GLP-2 receptor (hGLP2-R), splice variant rs17681684 (human, UniProt O95838 1-553) (assay: cell-based or functional assay).
T1 sequence (looked up): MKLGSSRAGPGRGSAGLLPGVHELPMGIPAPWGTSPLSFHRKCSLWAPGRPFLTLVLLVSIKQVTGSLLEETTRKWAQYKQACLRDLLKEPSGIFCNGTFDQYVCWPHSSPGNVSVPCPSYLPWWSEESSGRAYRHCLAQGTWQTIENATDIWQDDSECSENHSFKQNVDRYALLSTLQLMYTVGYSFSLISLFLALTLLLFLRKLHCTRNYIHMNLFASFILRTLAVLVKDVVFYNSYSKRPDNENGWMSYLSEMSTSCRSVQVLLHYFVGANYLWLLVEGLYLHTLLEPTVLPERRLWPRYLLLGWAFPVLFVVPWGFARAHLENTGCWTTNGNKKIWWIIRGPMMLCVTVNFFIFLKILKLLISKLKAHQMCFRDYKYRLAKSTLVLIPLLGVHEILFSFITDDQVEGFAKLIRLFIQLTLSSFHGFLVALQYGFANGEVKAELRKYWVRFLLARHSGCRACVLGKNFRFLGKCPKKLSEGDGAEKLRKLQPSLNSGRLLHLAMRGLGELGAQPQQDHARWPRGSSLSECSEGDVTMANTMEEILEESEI

Row | Molecule | GLP-2R EC50 (nM), cAMP AlphaScreen on HEK293 cells expressing the receptor [nM]
2 | H-HGDGSFSSELATILDGKAARDFINWLIQTKITD-OH [Compound 7: Hy-HGDGSFSSELATILDGKAARDFINWLIQTKITD-OH] | 0.2
3 | H-HGDGSFSSEMNTILDSQAARDFINWLIQTKITD-OH [Compound 4: Hy-HGDGSFSSEMNTILDSQAARDFINWLIQTKITD-OH] | 0.06
4 | H-HGEGTFTSDLSKQMEGQAVRDFIEWLIQTKITD-OH [Compound 5: Hy-HGEGTFTSDLSKQMEGQAVRDFIEWLIQTKITD-OH] | 0.2
5 | H-HGDGSFSDEMNTILDNKAARDFINWLIQTKITD-OH [Compound 2: Hy-HGDGSFSDEMNTILDNKAARDFINWLIQTKITD-OH] | 0.02
6 | H-HGDGSFSSELATILDGQAARDFIAWLIQTKITD-OH [Compound 11: Hy-HGDGSFSSELATILDGQAARDFIAWLIQTKITD-OH] | 0.2
7 | H-HGEGSFSSDLSTILENKAARDFIEWLIQTKITD-OH [Compound 9: Hy-HGEGSFSSDLSTILENKAARDFIEWLIQTKITD-OH] | 0.2
8 | H-HGEGSFSSDLSTILEGKAARDFIEWLIQTKITD-OH [Compound 13: Hy-HGEGSFSSDLSTILEGKAARDFIEWLIQTKITD-OH] | 0.1
9 | B1 | 3.9
10 | B2 | 0.12
11 | H-HGEGTFTSDLSTILENKAARDFIEWLIQTKITD-OH [Compound 8: Hy-HGEGTFTSDLSTILENKAARDFIEWLIQTKITD-OH] | 0.008

Each molecule was assayed against human glucagon-like peptide 1 receptor (GLP-1R) (human, UniProt P43220 24-463) (assay: cell-based or functional assay).

Row | Molecule | GLP-1R EC50 (nM), cAMP AlphaScreen on HEK293 cells expressing the receptor [nM]
12 | H-HGEGTFTSDLSKQMESKAARDFIEWLIQTKITD-OH [Compound 6: Hy-HGEGTFTSDLSKQMESKAARDFIEWLIQTKITD-OH] | 1.1
13 | H-HGDGSFSSELATILDGKAARDFINWLIQTKITD-OH [Compound 7: Hy-HGDGSFSSELATILDGKAARDFINWLIQTKITD-OH] | 0.78
14 | H-HGDGSFSSEMNTILDSQAARDFINWLIQTKITD-OH [Compound 4: Hy-HGDGSFSSEMNTILDSQAARDFINWLIQTKITD-OH] | 25
15 | H-HGEGTFTSDLSKQMEGQAVRDFIEWLIQTKITD-OH [Compound 5: Hy-HGEGTFTSDLSKQMEGQAVRDFIEWLIQTKITD-OH] | 1
16 | H-HGDGSFSDEMNTILDNKAARDFINWLIQTKITD-OH [Compound 2: Hy-HGDGSFSDEMNTILDNKAARDFINWLIQTKITD-OH] | 77
17 | H-HGDGSFSSELATILDGQAARDFIAWLIQTKITD-OH [Compound 11: Hy-HGDGSFSSELATILDGQAARDFIAWLIQTKITD-OH] | 0.34
18 | H-HGEGSFSSDLSTILENKAARDFIEWLIQTKITD-OH [Compound 9: Hy-HGEGSFSSDLSTILENKAARDFIEWLIQTKITD-OH] | 9.1
19 | H-HGEGSFSSDLSTILEGKAARDFIEWLIQTKITD-OH [Compound 13: Hy-HGEGSFSSDLSTILEGKAARDFIEWLIQTKITD-OH] | 18
20 | B1 | 0.03
21 | B2 | 44
22 | H-HGEGTFTSDLSTILENKAARDFIEWLIQTKITD-OH [Compound 8: Hy-HGEGTFTSDLSTILENKAARDFIEWLIQTKITD-OH] | 16
